Test results reported in patent publication US20230087600A1 (Bristol-Myers Squibb, published 2023).

T1: human IL-10 receptor (IL-10R) on T cells and B cells of human whole blood (human, UniProt Q13651 22-578; Q08334 20-325)
T1 sequence (looked up) 1: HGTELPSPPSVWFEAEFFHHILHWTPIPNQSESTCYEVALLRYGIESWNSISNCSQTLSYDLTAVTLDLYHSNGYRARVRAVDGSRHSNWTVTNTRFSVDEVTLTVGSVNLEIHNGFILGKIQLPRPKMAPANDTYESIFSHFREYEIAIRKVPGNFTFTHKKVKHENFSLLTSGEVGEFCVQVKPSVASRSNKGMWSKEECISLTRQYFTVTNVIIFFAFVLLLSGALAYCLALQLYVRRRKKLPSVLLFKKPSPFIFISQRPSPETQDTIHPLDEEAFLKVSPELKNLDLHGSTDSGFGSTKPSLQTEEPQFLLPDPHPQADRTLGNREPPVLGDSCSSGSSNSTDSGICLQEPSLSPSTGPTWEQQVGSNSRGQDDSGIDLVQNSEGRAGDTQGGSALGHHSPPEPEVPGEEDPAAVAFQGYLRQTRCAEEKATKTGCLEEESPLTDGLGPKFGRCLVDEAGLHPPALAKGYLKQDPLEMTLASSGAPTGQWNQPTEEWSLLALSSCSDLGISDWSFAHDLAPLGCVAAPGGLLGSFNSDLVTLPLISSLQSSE
T1 sequence (looked up) 2: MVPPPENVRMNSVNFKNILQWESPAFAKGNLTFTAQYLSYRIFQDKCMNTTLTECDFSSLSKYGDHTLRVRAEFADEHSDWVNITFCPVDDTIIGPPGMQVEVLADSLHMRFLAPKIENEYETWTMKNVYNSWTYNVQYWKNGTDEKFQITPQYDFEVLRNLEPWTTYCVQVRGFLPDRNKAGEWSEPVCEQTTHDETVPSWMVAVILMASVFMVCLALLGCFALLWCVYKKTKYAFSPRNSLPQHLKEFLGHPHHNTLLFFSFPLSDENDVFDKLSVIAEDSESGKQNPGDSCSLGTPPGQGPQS

B1: Fc-IL-10 (human IgG1.3f Fc domain - GGGGSSGGGGSGGGGSGGGGS linker - wildtype human IL-10) (Fc fusion)
chain: DKTHTCPPCPAPEAEGAPSVFLFPPKPKDTLMISRTPEVTCVVVDVSHEDPEVKFNWYVDGVEVHNAKTKPREEQYNSTYRVVSVLTVLHQDWLNGKEYKCKVSNKALPAPIEKTISKAKGQPREPQVYTLPPSREEMTKNQVSLTCLVKGFYPSDIAVEWESNGQPENNYKTTPPVLDSDGSFFLYSKLTVDKSRWQQGNVFSCSVMHEALHNHYTQKSLSLSPGGGGGSSGGGGSGGGGSGGGGSSPGQGTQSENSCTHFPGNLPNMLRDLRDAFSRVKTFFQMKDQLDNLLLKESLLEDFKGYLGCQALSEMIQFYLEEVMPQAENQDPDIKAHVNSLGENLKTLRLRLRRCHRFLPCENKSKAVEQVKNAFNKLQEKGIYKAMSEFDIFINYIEAYMTMKIRN
B2: wildtype human IL-10 (ligand)
chain: SPGQGTQSENSCTHFPGNLPNMLRDLRDAFSRVKTFFQMKDQLDNLLLKESLLEDFKGYLGCQALSEMIQFYLEEVMPQAENQDPDIKAHVNSLGENLKTLRLRLRRCHRFLPCENKSKAVEQVKNAFNKLQEKGIYKAMSEFDIFINYIEAYMTMKIRN

Molecular target: T1, human IL-10 receptor (IL-10R) on T …
Assay: cell-based or functional assay

Row | STAT3 phosphorylation (pY705), flow cytometry, CD3+ T cells in human whole blood, EC50 | STAT3 phosphorylation (pY705), flow cytometry, CD19+ B cells in human whole blood, EC50 | Binder
1 | 222 pM | 352 pM | B1
2 | 47.7 pM | 116 pM | B2
